Experimental data from paper PMC4810121, “Proteomics Analysis Reveals Novel RASSF2 Interaction Partners” (Cancers, 2016).

Target: T1, RASSF2 (expression construct precipitated with anti-Flag) (UniProt P50749 1-326)
T1 construct: RASSF2; The methods describe no Flag-tagged construct; That RASSF2 carried the Flag tag is surmised, because C1QBP is the GFP-tagged partner and the blot used anti-Flag and anti-GFP; source: HEK-293T, transfected, in lysate
T1 sequence (looked up): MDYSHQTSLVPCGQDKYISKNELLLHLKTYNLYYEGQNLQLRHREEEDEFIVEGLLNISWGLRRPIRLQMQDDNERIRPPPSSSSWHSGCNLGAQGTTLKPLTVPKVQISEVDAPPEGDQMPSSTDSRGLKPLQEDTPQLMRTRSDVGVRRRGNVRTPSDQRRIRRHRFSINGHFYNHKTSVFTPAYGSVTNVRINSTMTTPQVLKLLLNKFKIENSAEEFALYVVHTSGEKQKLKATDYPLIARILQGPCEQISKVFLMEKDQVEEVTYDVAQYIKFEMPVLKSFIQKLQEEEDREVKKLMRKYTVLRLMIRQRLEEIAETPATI
Test: co-IP; HEK-293T co-transfected with RASSF2, C1QBP and with or without activated K-Ras for 24 hours; lysates immunoprecipitated with anti-Flag, blotted with anti-Flag and anti-GFP
Settings: partners not purified

B1: GFP-C1QBP (natural protein, UniProt Q07021 74-282, looked up)
chain: LHTDGDKAFVDFLSDEIKEERKIQKHKTLPKMSGGWELELNGTEAKLVRKVAGEKITVTFNINNSIPPTFDGEEEPSQGQKVEEQEPELTSTPNFVVEVIKNDDGKKALVLDCHYPEDEVGQEDEAESDIFSIREVSFQSTGESEWKDTNYTLNTDSLDWALYDHLMDFLADRGVDNTFADELVELSTALEHQEYITFLEDLKSFVKSQ
notes: C1QBP; cDNA from GeneCopoeia, PCR amplified and cloned into pEGFP-C1; source: HEK-293T, transfected, in lysate
How did the “fold change of the co-precipitate with activated Ras against without” value turn out when B1 was run?
Its value is about 2 fold.
